In article PMC11779849:

What was measured:
[1] = molecular target: human P-cadherin K14E mutant ectodomain (EC1-5) (human); experiment: single-molecule AFM force spectroscopy; biotinylated Pcad EC1-5 held by streptavidin on PEG tethers on both the cantilever and the glass substrate; no CQY684 (-CQY); tip retracted at 1 µm/s; Tris buffer pH 7.5, 10 mM Tris-HCl, 100 mM NaCl, 10 mM KCl, 2.5 mM CaCl2; peak forces from Gaussian fits of unbinding force histograms
[2] = molecular target: human P-cadherin K14E mutant ectodomain (EC1-5) (human); experiment: single-molecule AFM force spectroscopy; as the -CQY experiment but with 40 nM CQY684 Fab in the buffer (+CQY); Pcad EC1-5 on cantilever and substrate; 1 µm/s; Tris buffer pH 7.5 with 2.5 mM CaCl2
[3] = molecular target: human P-cadherin W2A mutant ectodomain (EC1-5) (human); experiment: single-molecule AFM force spectroscopy; biotinylated Pcad EC1-5 held by streptavidin on PEG tethers on both the cantilever and the glass substrate; no CQY684 (-CQY); tip retracted at 1 µm/s; Tris buffer pH 7.5, 10 mM Tris-HCl, 100 mM NaCl, 10 mM KCl, 2.5 mM CaCl2; peak forces from Gaussian fits of unbinding force histograms
[4] = molecular target: human P-cadherin W2A mutant ectodomain (EC1-5) (human); experiment: single-molecule AFM force spectroscopy; as the -CQY experiment but with 40 nM CQY684 Fab in the buffer (+CQY); Pcad EC1-5 on cantilever and substrate; 1 µm/s; Tris buffer pH 7.5 with 2.5 mM CaCl2

| peak unbinding force [1] [pN] | peak unbinding force (with 40 nM CQY684) [2] [pN] | peak unbinding force [3] [pN] | peak unbinding force, first Gaussian (with 40 nM CQY684) [4] [pN] | peak unbinding force, second Gaussian (with 40 nM CQY684) [4] [pN] | Substance |
| --- | --- | --- | --- | --- | --- |
| 33.1 | 31 |  |  |  | human P-cadherin K14E mutant ectodomain (EC1-5) (domain or fragment) |
|  |  | 24.5 | 35.1 | 55.8 | human P-cadherin W2A mutant ectodomain (EC1-5) (domain or fragment) |
